Measured values taken from patent US7517654B2, “Peptide and a derivative thereof promoting cell adhesion and spreading” (Seoul National University Industry Foundation, priority 2004, dated 2009).
“Also recorded” adds a separate entry of the source.

B1: rLG3: recombinant His6-tagged LG3 domain, residues 1128-1364 of human laminin α3 chain (protein, listed as Homo sapiens)
chain: VRLNDTVGVTKKCSEDWKLVRSASFSRGGQLSFTDLGLPPTDHLQASFGFQTFQPSGILLDHQTWTRNLQVTLEDGYIELSTSDSGGPIFKSPQTYMDGLLHYVSVISDNSGLRLLIDDQLLRNSKRLKHISSSRQSLRLGGSNFEGCISNVFVQRLSLSPEVLDLTSNSLKRDVSLGGCSLNKPPFLMLLKGSTRFNKTKTFRINQLLQDTPVASPRSVKVWQDACSPLPKTQANH
modifications: His6 tag
notes: recombinant His6-tagged LG3 domain, residues 1128-1364 of human laminin α3 chain

Tests used:
HOK-16B cells = experiment: Competition of soluble peptides for HOK-16B cell adhesion to rLG3-coated plates; assay type: cell-based, human; conditions: HOK-16B cells preincubated 30 min with 100 μg/ml peptide, control without peptide = 100%
Experimental: (§1) To identify the receptor of the HOK-16B cells for rLG3 protein and peptide P4, 5 μg/ml of mAbs to different types of integrins or 5 mM EDTA were preincubated individually with HOK-16B cells in 0.5 ml incubation solution (2×10^5 cells/ml) for 30 min at 37° C. The preincubated cells were then transferred onto plates precoated with either 25 μg/ml of rLG3 protein or 10 μg/well of peptide P4 and incubated for 1 h at 37° C. Attached cells were then quantified by the cell adhesion assay described above in the Experimental Example 2, and cell adhesion activity inhibition rate were measured.
Accordingly, the inventors examined the ability of peptide P4 to compete for cell adhesion activity to rLG3 domain by the method of Experimental Example 4. First, the purified rLG3 proteins (25 μg/well) were coated onto 24-well plates. HOK-16B cells were preincubated with the various peptides (100 μg/ml) or without the peptide for 30 min at 37° C. The preincubated cells were then added to rLG3-coated plates and cultured for 1 h in serum-free medium. The unbound cells were washed off and the adherent cells were fixed and stained with crystal violet. The average adhesion activity of the control cultures (HOK-16B cells preincubated without peptide) was considered 100%, the results are expressed as mean ±SD of the four independent experiments.

integrin α3β1 = target: T1, integrin α3β1 (Homo sapiens, UniProt P05556+P26006); experiment: Adhesion activity inhibition assay with function-blocking anti-integrin mAbs or EDTA; assay type: cell-based; conditions: 25 μg/ml rLG3 or 10 μg/well peptide P4 coating; for inhibition of cell adhesion activity by anti-integrin β1 antibody: 5 μg/ml mAb (6S6) preincubation 30 min; for inhibition of cell adhesion activity by anti-integrin α3 antibody: 5 μg/ml mAb (P1B5) preincubation 30 min; for effect of EDTA on cell adhesion: 5 mM EDTA preincubation 30 min
T1 construct: it is confirmed that the HOK-16B cells expressed several integrins, including α3β1, α6β1, and α6β4; endogenous in cells; host or cells: HOK-16B (HPV-16-immortalized human oral keratinocytes)
Experimental: as §1
Meanwhile, the ligand-integrin interaction were known to require a divalent cation. To determine the role of cations in the interaction, the present inventors examined the effect of metal-chelating reagent, EDTA, on HOK-16B cell adhesion to the rLG3- and peptide P4-coated plates. HOK-16B cells were preincubated with 5 mM EDTA or 5 μg/ml function-blocking mAbs (Chemicon Temecula, CA) against integrin α3 (P1B5), β1 (6S6), α6 (NK I-GoH3) subunits for 30 min at 37° C. and plated on 25 μg/ml rLG3-precoated plate, and then cultured for 1 hr. After the unbound cells were washed off, the adherent cells were fixed to stain with crystal violet, and the stained cells were analyzed. The average adhesion activity of control cultures (HOK-16B cells preincubated without EDTA or integrin antibodies) were considered 100%.

FAK = FAK phosphorylation assay (immunoblot, p-FAK/t-FAK); assay type: cell-based, human; conditions: 15 min
Experimental: The FAK phosphorylation assays were performed according to a method of Shang et al. (J. Biol. Chem., 276:33045, 2001). In detail, the HOK-16B cells were trypsinized, washed, and kept in suspension in serum-free KGM with 0.1% BSA for 1 h at 37° C. The 60-mm culture dishes were coated with laminin (5 μg/ml) or rLG3 protein (25 μg/ml) at 4° C. overnight. Peptides (50 μg/60-mm culture dish) were also coated on dishes by drying overnight. For the adherent FAK assay, 1×10^6 cells were plated onto uncoated, laminin-coated, rLG3 protein-coated, or various peptide-coated dishes and allowed to attach for 15, 30, or 60 min at 37° C. in an atmosphere of 5% CO2. At the end of the incubation, cells were washed with ice-cold PBS and lysed in RIPA buffer (50 mM Tris [pH 7.4], 150 mM NaCl, 1% Nonidet P-40, 0.5% Na-deoxycholate, 1 mM EDTA, 0.1% SDS, 2 mM Na3VO4, 1 mM glycerol phosphate, 1 mM PMSF, and protease inhibitor cocktail). Lysates were clarified by centrifugation at 12,000×g for 10 min at 4° C. to isolate cytosolic extracts.
The cytosolic extracts were denatured using SDS sample buffer [50 mM Tris-HCl (pH 6.8), 2% SDS, 10% glycerol, 0.1% bromophenol blue, 100 mM β-mercaptoethanol] and separated on an 8% SDS-polyacrylamide gel. Electrophoretic transfer of SDS-PAGE gel separated with protein to a nitrocellulose membrane was followed by immnoblotting with polyclonal anti-FAK antibodies to determine the total FAK level or immnoblotting with polyclonal anti-FAK [pY^397], [pY^407], [pY^576], [pY^577] or [pY^861] antibodies to determine the extent of tyrosine phosphorylation. The relative fold induction of FAK phosphorylation, defined as an increase in FAK phosphorylation of a sample relative to its corresponding background level (i.e., cells plated on plastic) was determined as follows: First, the densitomerty intensity of the phosphorylated FAK (p-FAK) and the total FAK (t-FAK) signals from the Western blots were measured with a LAS-1000plus (Fuji photo film, Japan). The ratio of p-FAK to t-FAK (p-FAK/t-FAK) for each sample was then calculated to correct for differences in protein loading. This ratio was normalized to the p-FAK/t-FAK ratio of the negative controls to obtain the relative fold induction of FAK phosphorylation.
HOK-16B cells isolated by trypsinization were suspended for 1 hr, and kept in suspension (Sus), or replated on 60-mm culture dishes coated with or without laminin (5 μg/ml). The cells were kept for 15, 30, or 60 min for being attached on plates, then cell lysates were analyzed by immunoblot analysis with anti-FAK p-Y397 antibody (Biosource, Camariollo, Calif.). […] This effect was observed within 15 min and peaked at 15 min after exposure to the laminin-coated plate (FIG. 8A).
Therefore, the extent of FAK phosphorylation at Tyr-397,-407,-576, -577, and -861 was investigated in HOK-16B cells cultured on plates coated with laminin (5 μg/ml), rLG3 (25 μg/ml), or peptides P1-P5 (50 μg/60-mm dish) for 15 min. The lysates were immnoblotted with polyclonal anti-FAK, p-Y397, p-Y407, p-Y576, p-Y577 or p-Y861 antibodies (Biosoucce, Camariollo, Calif.), and the total FAK level was detected using anti-FAK antibodies (Upstate Biotechnology, Lake Placid, N.Y. The ratio of p-FAK to t-FAK (p-FAK/t-FAK) for each sample was then calculated to correct for differences in protein loading. This ratio was normalized to the p-FAK/t-FAK ratio of the negative controls (cells on plates) to obtain the relative fold induction of FAK phosphorylation. As a result, the extent of FAK phosphorylation at Tyr-397 cultured on the laminin-coated or rLG3 protein-coated plates increased 16.2- and 8.2-fold compared with the untreated control (FIG. 8B).

T1 sequence (P26006 33-872 limits assumed): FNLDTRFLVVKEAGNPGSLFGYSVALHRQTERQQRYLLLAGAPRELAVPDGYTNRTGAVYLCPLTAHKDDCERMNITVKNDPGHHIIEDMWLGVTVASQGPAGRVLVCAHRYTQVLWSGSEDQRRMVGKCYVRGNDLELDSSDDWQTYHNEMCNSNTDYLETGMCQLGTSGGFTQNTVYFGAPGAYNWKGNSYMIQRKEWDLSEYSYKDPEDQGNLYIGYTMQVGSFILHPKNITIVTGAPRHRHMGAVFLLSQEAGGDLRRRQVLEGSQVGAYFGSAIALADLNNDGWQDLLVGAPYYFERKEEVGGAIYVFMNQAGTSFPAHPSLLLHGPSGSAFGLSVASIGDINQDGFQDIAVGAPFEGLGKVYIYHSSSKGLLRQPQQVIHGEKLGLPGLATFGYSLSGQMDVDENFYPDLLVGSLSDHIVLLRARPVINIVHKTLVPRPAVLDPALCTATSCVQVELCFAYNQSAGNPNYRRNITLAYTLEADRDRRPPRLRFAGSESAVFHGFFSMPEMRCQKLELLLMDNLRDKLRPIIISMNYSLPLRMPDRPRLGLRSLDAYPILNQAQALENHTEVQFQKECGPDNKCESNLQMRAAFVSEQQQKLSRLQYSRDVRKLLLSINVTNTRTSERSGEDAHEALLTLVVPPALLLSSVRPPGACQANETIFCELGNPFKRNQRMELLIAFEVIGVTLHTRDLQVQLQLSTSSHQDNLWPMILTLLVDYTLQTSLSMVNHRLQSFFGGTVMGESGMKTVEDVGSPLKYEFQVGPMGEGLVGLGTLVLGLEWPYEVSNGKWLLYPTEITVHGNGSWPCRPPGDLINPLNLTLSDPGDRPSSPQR
T1 sequence (P26006 873-1051 limits assumed): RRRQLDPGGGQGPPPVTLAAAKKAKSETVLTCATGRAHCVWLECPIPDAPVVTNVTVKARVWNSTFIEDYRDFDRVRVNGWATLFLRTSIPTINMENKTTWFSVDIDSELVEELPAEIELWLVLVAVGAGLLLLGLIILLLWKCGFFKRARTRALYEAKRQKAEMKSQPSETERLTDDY
T1 sequence (P05556 21-798): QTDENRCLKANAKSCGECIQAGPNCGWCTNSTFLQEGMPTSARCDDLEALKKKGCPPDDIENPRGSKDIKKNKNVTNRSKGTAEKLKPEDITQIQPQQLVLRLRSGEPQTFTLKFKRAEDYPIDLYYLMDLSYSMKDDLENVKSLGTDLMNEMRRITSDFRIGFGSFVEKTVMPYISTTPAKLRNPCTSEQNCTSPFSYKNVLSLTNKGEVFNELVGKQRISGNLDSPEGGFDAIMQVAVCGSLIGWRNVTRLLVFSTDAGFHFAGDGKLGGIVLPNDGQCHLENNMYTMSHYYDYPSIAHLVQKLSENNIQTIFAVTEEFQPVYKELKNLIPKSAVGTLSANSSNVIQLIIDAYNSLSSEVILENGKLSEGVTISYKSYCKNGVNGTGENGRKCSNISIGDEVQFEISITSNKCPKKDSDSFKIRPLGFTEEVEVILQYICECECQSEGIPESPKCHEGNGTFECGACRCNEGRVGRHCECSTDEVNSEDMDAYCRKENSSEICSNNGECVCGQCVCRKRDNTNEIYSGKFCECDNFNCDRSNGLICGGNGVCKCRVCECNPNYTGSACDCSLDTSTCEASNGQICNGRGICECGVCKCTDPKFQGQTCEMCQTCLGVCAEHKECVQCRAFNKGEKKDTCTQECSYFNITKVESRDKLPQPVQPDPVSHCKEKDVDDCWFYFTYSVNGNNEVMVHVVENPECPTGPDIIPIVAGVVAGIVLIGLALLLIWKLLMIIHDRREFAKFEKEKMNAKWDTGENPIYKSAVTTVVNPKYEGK

Molecule | inhibition of cell adhesion to rLG3 (HOK-16B cells) | inhibition of cell adhesion activity by anti-integrin β1 antibody (integrin α3β1) [%] | inhibition of cell adhesion activity by anti-integrin α3 antibody (integrin α3β1) [%] | effect of EDTA on cell adhesion (integrin α3β1) | FAK phosphorylation level at Tyr-577 (FAK; HOK-16B cells on coated dishes, peptides 50 μg/60-mm dish) | changes of the FAK phosphorylation levels at Tyr-407, -576 and -861 (FAK; HOK-16B cells on coated dishes) | increase of FAK phosphorylation at Tyr-397 compared with the untreated control (FAK; HOK-16B cells, laminin 5 μg/ml or rLG3 25 μg/ml coating, p-FAK/t-FAK normalized) [fold]
PPFLMLLKGSTR [peptide P4] | approximately 51% | 54 | 49 | decrease in cell adhesion | higher than that in the cells spread on the other peptides; also recorded: lower than that on laminin |  | 
B1 |  | 71 | 71 | almost completely inhibited |  | not observed | 8.2
